Starred links: 1 amine or outer side, 2 acyl side, 3 side chain; linkers in the order of their positions; H or OH if unused. Positions of bridges follow the written chain, without caps; N, C: chain ends. Non-standard residues stand in square brackets, D forms with d. Groups on a side chain read outwards from the residue. Primed or numbered codes have the meaning given here. No end group written: not given here. *: point of attachment. (4Pippip)GlnR = (S)-5-([1,4'-bipiperidin]-1'-yl)-2-amino-5-oxopentanoic acid (Gln side-chain amide with 4-piperidinopiperidine), O=C(CC[C@H](N[*:1])C(=O)[*:2])N1CCC(N2CCCCC2)CC1; (Me2NPrPip)GlnR = (S)-2-amino-5-(4-(3-(dimethylamino)propyl)piperazin-1-yl)-5-oxopentanoic acid, CN(C)CCCN1CCN(C(=O)CC[C@H](N[*:1])C(=O)[*:2])CC1; PyrS2″ = (S)-3-amino-1-((pent-4-en-1-yloxy)carbonyl)pyrrolidine-3-carboxylic acid (stapling residue), C=CCCCOC(=O)N1CC[C@@](N[*:1])(C(=O)[*:2])C1; B5(4) = 2,2-bis(4-pentenyl)glycine = 2-amino-2-(pent-4-en-1-yl)hept-6-enoic acid (stitching residue), C=CCCCC(CCCC=C)(N[*:1])C(=O)[*:2]; (CH2NMe2)4SEF = (S)-2-amino-3-(4-(3-(dimethylamino)prop-1-yn-1-yl)phenyl)propanoic acid, CN(C)CC#Cc1ccc(C[C@H](N[*:1])C(=O)[*:2])cc1; TfeGA = (S)-2-amino-3-((carboxymethyl)(2,2,2-trifluoroethyl)amino)propanoic acid, O=C([C@H](CN(CC(=O)[*:3])CC(F)(F)F)N[*:1])[*:2]; PyrS2 = (S)-3-amino-1-((pent-4-en-1-yloxy)carbonyl)pyrrolidine-3-carboxylic acid, C=CCCCOC(=O)N1CC[C@@](N[*:1])(C(=O)[*:2])C1; F2PipNva = (S)-2-amino-5-(4,4-difluoropiperidin-1-yl)pentanoic acid, O=C([C@H](CCCN1CCC(F)(F)CC1)N[*:1])[*:2]; Lithocholoyl = C[C@H](CCC(=O)*)[C@H]1CC[C@H]2[C@@H]3CC[C@@H]4C[C@H](O)CC[C@]4(C)[C@H]3CC[C@]12C; MorphAsn = (S)-2-amino-4-morpholino-4-oxobutanoic acid, O=C(C[C@H](N[*:1])C(=O)[*:2])N1CCOCC1; B5(3) = 2,2-bis(4-pentenyl)glycine (stitching residue), C=CCCCC(CCCC=C)(N[*:1])C(=O)[*:2]; Me3AdamantC = 3,5,7-trimethyladamantane-1-carbonyl, CC12CC3(C)CC(C)(C1)CC(C(=O)*)(C2)C3; Nva(5-morpholino) = N[C@@H](CCCN1CCOCC1)C(=O)O; Bta = N[C@@H](Cc1csc2ccccc12)C(=O)O; αAllylPro = C=CC[C@@]1(C(=O)O)CCCN1; tBuAla = CC(C)(C)C[C@H](N)C(=O)O; 3Thi = N[C@@H](Cc1ccsc1)C(=O)O; TfeGA″ = not defined here; PEG2′ = not defined here

The chains are these.
B1: I-1797 (peptide)
peptide: Ac-[αAllylPro]D[tBuAla][B5(3)]D[TfeGA]AAFL[PyrS2″][3Thi][Bta][(4Pippip)GlnR]-NH2
modifications: staple 1-4, 4-11; not fully specified
B2: I-1800 (peptide)
peptide: Ac-[αAllylPro]D[tBuAla][B5(3)]D[TfeGA″]AAFL[PyrS2″][3Thi][Bta][(Me2NPrPip)GlnR]-NH2
modifications: staple 1-4, 4-11; not fully specified; reading uncertain
B3: I-1799 (peptide)
peptide: Ac-[αAllylPro]D[tBuAla][B5(3)]D[TfeGA]AAFL[PyrS2″][3Thi][Bta][(Me2NPrPip)GlnR]-NH2
modifications: staple 1-4, 4-11; not fully specified
B4: I-1482 (peptide)
peptide: Ac-[αAllylPro]D[tBuAla][B5(3)]DD[F2PipNva]AFL[PyrS2″][3Thi][Bta]Q-NH2
modifications: staple 1-4, 4-11
B5: I-1472 (peptide)
peptide: Ac-[αAllylPro]DK([PEG2′-Me3AdamantC])[B5(4)]DDAAFL[PyrS2][3Thi][Bta]Q-NH2
modifications: staple 1-4, 4-11
B6: I-1471 (peptide)
peptide: Ac-[αAllylPro]DK(Me3AdamantC)[B5(4)]DDAAFL[PyrS2][3Thi][Bta]Q-NH2
modifications: staple 1-4, 4-11
B7: I-1480 (peptide)
peptide: Ac-[αAllylPro]D[tBuAla][B5(3)]DDAAFL[PyrS2″][3Thi][Bta]QK([PEG2′-Me3AdamantC])-NH2
modifications: staple 1-4, 4-11
B8: I-1476 (peptide)
peptide: Ac-[αAllylPro]D[tBuAla][B5(4)]DDAK([PEG2′-Me3AdamantC])FL[PyrS2″][3Thi][Bta]Q-NH2
modifications: staple 1-4, 4-11
B9: I-1467 (peptide)
peptide: Ac-[αAllylPro]D[tBuAla][B5(4)]DD[(CH2NMe2)4SEF]AFL[PyrS2]F[Bta]Q
modifications: staple 1-4, 4-11
B10: I-1478 (peptide)
peptide: Ac-[αAllylPro]D[tBuAla][B5(4)]DDAAFL[PyrS2″][3Thi][Bta]QK([PEG2′-Lithocholoyl])-NH2
modifications: staple 1-4, 4-11
B11: I-1483 (peptide)
peptide: Ac-[αAllylPro]D[tBuAla][B5(3)]DD[MorphAsn]AFL[PyrS2″][3Thi][Bta]Q-NH2
modifications: staple 1-4, 4-11
B12: I-1470 (peptide)
peptide: Ac-[αAllylPro]DK([PEG2′-Lithocholoyl])[B5(4)]DDAAFL[PyrS2][3Thi][Bta]Q-NH2
modifications: staple 1-4, 4-11
B13: I-1481 (peptide)
peptide: Ac-[αAllylPro]D[tBuAla][B5(3)]DD[Nva(5-morpholino)]AFL[PyrS2″][3Thi][Bta]Q-NH2
modifications: staple 1-4, 4-11
B14: I-1474 (peptide)
peptide: Ac-[αAllylPro]D[tBuAla][B5(4)]DDAK([PEG2′-Lithocholoyl])FL[PyrS2″][3Thi][Bta]Q-NH2
modifications: staple 1-4, 4-11

The first assay deals with T1, B-cat-Halo (beta-catenin HaloTag NanoBRET construct expressed in HEK293 cells) (UniProt P35222 1-781, HaloTag NanoBRET 618 Ligand bound in the assay).
T1 sequence (looked up): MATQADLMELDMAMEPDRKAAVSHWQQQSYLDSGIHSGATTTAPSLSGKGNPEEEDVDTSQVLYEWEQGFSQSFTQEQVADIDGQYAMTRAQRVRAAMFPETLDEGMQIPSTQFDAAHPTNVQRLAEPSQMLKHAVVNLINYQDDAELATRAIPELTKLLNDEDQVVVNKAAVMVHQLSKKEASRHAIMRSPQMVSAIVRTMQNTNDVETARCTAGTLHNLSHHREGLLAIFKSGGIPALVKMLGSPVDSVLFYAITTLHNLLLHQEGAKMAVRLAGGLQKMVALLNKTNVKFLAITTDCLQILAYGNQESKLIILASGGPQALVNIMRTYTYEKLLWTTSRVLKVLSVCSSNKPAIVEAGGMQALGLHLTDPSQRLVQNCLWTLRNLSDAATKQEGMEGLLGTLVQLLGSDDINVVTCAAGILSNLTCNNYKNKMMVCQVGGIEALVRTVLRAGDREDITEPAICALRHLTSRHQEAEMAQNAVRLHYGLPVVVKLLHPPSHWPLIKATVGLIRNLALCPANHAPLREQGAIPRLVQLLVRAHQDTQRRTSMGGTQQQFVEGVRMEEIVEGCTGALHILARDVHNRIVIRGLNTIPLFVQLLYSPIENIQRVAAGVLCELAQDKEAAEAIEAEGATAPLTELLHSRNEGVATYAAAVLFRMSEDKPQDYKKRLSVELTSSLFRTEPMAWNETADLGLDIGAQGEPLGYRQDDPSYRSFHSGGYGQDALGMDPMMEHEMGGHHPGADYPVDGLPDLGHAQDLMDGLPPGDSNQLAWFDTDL
The assay is described as follows: cell-based or functional assay.
Regarding B1, the “NanoBRET Abs IC50” value came to 22.5 µM.
B2: the “NanoBRET Abs IC50” value was 25.2 µM.
Regarding B3, the “NanoBRET Abs IC50” value was 25.8 µM.

The target of another assay is T2, Bcat-Halo (beta-catenin HaloTag construct transfected into HEK293 cells) (UniProt P35222 1-781).
T2 sequence (looked up): T1 sequence (looked up)
The assay is described as follows: cell-based or functional assay.
Turning to B4, the “NanoBRET Abs IC50” value amounted to 18 µM.
On the same count and under the same terms, the result for B5 reads over 20 µM; that for B6, over 20 µM; that for B7, 9.3 µM.
On to B8, for which the “NanoBRET Abs IC50” value was over 20 µM.
With B9, the “NanoBRET Abs IC50” value worked out at 9.6 µM.
For the molecule B10, the “NanoBRET Abs IC50” value was found to be 17.1 µM.
For B11, the “NanoBRET Abs IC50” value was over 20 µM.
Take B12: the “NanoBRET Abs IC50” value was over 20 µM.
B13: the “NanoBRET Abs IC50” value was 39.7 µM.
As to B14, the “NanoBRET Abs IC50” value is over 20 µM.

These data come from patent US20240116985A1 (published 2024).
